According to PMC4479010:

Target: GFP monomer (GFP 11 linked to the N terminus of GFP 1–10), net charge −3 [GFP: P42212]
Assay: PAGE with 0.1% SDS + SEC; GFP oligomer mixture; SEC on Superdex 200 10/300 GL, 0.5 ml/min, 500 mM NaCl, 50 mM Tris pH 8.0 or PBS

percent of expressed monomers polymerized to oligomers above the dimer: 50%
Substance: GFP monomer (GFP 11 linked to the N terminus of GFP 1–10), net charge −3 (from UniProt P42212 215-230; P42212 1-214) (designed binder)
